B1: library; numbered along this chain (parent)
chain: MAAAAAAAAEQQSSNGPVKKSMREKAVERRSVNKEHNSNFKAGYIPIDEDRLHKTGLRGRKGNLAICVIILLFILAVINLIITLVIWAVIRIGPNGCDSMEFHESGLLRFKQVSDMGVIHPLYKSTVGGRRNENLVITGNNQPIVFQQGTTKLSVENNKTSITSDIGMQFFDPRTQNILFSTDYETHEFHLPSGVKSLNVQKASTERITSNATSDLNIKVDGRAIVRGNEGVFIMGKTIEFHMGGNMELKAENSIILNGSVMVSTTRLPSSSSGDQLGSGDWVRYKLCMCADGTLFKVQVTSQNMGCQISDNPCGNTH

Variants of: B1
Test: SGCB cell-surface expression functional score (HA stain, bin4 vs bin1, normalised to synonymous) (log10 ratio); higher = more cell-surface SGCB (functional)
In short: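 Human beta-sarcoglycan, tagged with HA and fused to YFP, was built into codon-saturation libraries and delivered by lentivirus at MOI <0.1 into HEK293 cells that stably express alpha-, gamma- and delta-sarcoglycan. After 72 hours, YFP-positive cells were sorted and grown for 5–7 days, then stained on ice with Alexa Fluor 647 anti-HA, fixed, sorted into four 5% intensity bins and amplicon-sequenced. Each variant's functional score is the log ratio of its frequency in the highest bin to that in the lowest bin, taken as the median across codons and transductions. Transductions were done in duplicate, and synonymous variants were scaled per section to mean 0, SD 0.5.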

SGCB cell-surface expression functional score (log10), by site and new letter:
G278: H -0.29, C 0.13, K 0.27, M 0.18, D 0.31, L -0.05, F 0.12, I 0.08, E 0.27, A 0.15
G274: W -0.13, N -0.16, H -1.17, M -0.11, Q -0.28, I 0.31, R -0.37, L 0.03, D -0.37, S 0.17, P -0.32, A -0.37, C -0.61, T 0.16, K -0.77, F -0.16, E -0.62, Y 0.47, V -0.14
S271: A 0, L 0.07, T 0.3, W -0.22, N 0.21, E -0.22, H -0.19, C -0.06, I -0.19, M -0.03, K 0.11, Y -0.26, R -0.24, P -0.56, G 0.33, F 0.35, V 0.17, Q -0.08, D -0.12
L277: T 0.24, D -0.09, R -0.27, N 0.08, V -0.49, W 0.44, F -0.4, G -0.19, C -1.31, K -1.8, S -0.88, H 0.19, Q -0.65, P -1.21, M -0.2, I 0.41, E 0.02, A -0.39, Y -0.12
D275: E -0.21, M 0.18, N -0.12, S -0.06, G 0.01, T -0.08, P -1.24, Q -1.58, V 0.12, Y 0.17, H -0.97, K -0.82, W -0.16, I -0.42, F -0.57, L -0.13, A -0.05, R -0.53, C -0.13
Q276: A -0.49, N -0.22, H -0.07, M 0.2, C -1, K 0.11, T -1.1, I 0.1, S -0.37, R -0.17, W -1.29, E 0.14, Y 0.02, P -0.4, V -0.56, L -0.3, F -0.23, G 0.24, D 0.34
P269: R 0.75, V 0, W 0.56, Y 0.73, S 0.18, T 0.41
S273: M -1.46, A -0.68, T -0.52, C -0.58, H -0.82, D -0.07, N 0.34, R -0.14, W 0.09, Q -0.2, K -0.55, L -0.2, G -0.18, Y 0.11, I 0.05, V -0.79, E 0.08, F -1.31, P -0.33
S270: V 0.24, A 0.44, K -0.13, Q 0.47, F 1.1, C -0.02, I 0.33, H 0.54, T 0.45, E -0.45, M 0.77, R 0.24, G 0.32, P 0, N -0.08, D 0.32, Y 0.41, L 0.64
S272: A 0.37, E 0.23, G 0.1, H -0.05, K 0.11, F 0.1, R 0.18, V -0.14, T -0.52, D -0.3, Q 0.34, Y -0.29, P 0.21, C -0.03, L 0.07, I 0.34, N 0.08, W -0.13, M -1.59

Source: the supplement of paper PMC10266784
